The target of assay [1] is C3bB, the AP C3 pro-convertase (factor B complexed with C3b) (human).
Assay [2] has as its target C3b prepared from human EDTA plasma (human).
The target is the same in assay [3]. This is another data set of the same source.
Assay [4] deals with Factor B (Homo sapiens) (UniProt P00751). To be noted: cited from earlier work.

We go through 3 substances from publication PMC10239819.

Factor B (Homo sapiens), sequence (P00751 26-259): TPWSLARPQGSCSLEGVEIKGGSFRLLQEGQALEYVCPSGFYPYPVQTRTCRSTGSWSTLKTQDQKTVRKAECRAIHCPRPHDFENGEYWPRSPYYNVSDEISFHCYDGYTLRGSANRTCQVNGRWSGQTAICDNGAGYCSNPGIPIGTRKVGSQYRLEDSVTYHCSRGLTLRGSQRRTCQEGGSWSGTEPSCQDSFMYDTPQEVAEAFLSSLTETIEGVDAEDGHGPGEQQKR
tag-free recombinant human factor D (mature FD), sequence (P00746 26-253): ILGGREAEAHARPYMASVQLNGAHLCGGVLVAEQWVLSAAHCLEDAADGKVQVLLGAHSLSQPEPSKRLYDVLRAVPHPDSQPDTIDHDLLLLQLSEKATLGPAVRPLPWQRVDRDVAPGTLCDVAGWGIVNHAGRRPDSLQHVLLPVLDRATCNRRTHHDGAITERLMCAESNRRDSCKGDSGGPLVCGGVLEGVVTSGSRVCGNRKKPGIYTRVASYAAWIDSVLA
C3b C3b, sequence (P01024 566-670): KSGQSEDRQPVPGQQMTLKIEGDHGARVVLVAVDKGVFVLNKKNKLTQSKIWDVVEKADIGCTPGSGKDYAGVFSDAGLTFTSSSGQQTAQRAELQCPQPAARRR

For “tag-free recombinant human factor D (mature FD) (from UniProt P00746 26-253) (enzyme)”, the kobs/[E]T (estimate of kcat/KM) of the cleavage of C3bB (1.1 uM) by FD (0.25 nM), SDS-PAGE densitometry of Bb, 37 °C in assay [1] was 6.5e+06 M⁻¹ s⁻¹.
For “human, serum-derived, purified factor B (natural protein)”, the enhancement of the cleavage of FB by FD (ratio of kobs/[E]T on C3bB and on free FB; SDS-PAGE densitometry of Bb, 37 °C) in assay [2] was found to be 2e+07 fold. Also, the enhancement of the cleavage of FB by MASP-1cf (ratio of kobs/[E]T on C3bB and on free FB; SDS-PAGE densitometry of Bb, 37 °C) in assay [3] turned out to be 100 fold.
One may read the Kd as the constant that tells how readily two partners part at equilibrium. Take C3b C3b (from UniProt P01024): the Kd in assay [4] is 1400 nM.
